Assay results: US20110131028A1, “CELL POPULATION SYSTEM AND PROCESS” (priority 2006, published 2011)

System: B cells isolated from spleen
Assay: Survival of unstimulated B cells in culture, lognormal time-to-die fit
Format: cell-based
Settings: increasing IL-4 concentration; FIG. 3D
Description: As indicated above, the probability distribution is determined by simulating the decreasing size of a cell population over time in the absence of cell division. For example, when naive T or B lymphocytes are purified from lymphoid tissue and placed in tissue culture without stimulation, they progressively die by apoptosis, apparently from the absence of homeostatic survival signals that are present in vivo. To determine a probability distribution representing probabilities for cell death, small resting B cells from spleen/lymphnode can be placed in culture under different conditions and their viability measured by propidium iodide uptake at step 202. Cell numbers can be counted by reference to beads, as described in Deenick.
At step 204, the two parameters of the lognormal probability distribution, namely the mean μ and standard deviation σ, are determined using a standard fitting procedure (the Matlab fmincon function) that varies μ and σ to obtain the closest match between the corresponding lognormal survival curve (i.e., the simulated ‘survival curve’ representing the decreasing size of the cell population over time, the curve being generated from a lognormal probability distribution representing probabilities for times to die with distribution parameters μ and σ) and the experimental data. […]

B1: IL-4: cytokine that affects B cell viability without stimulating cell division (protein, UniProt P05112 25-153, looked up)
Interleukin-4: HKCDITLQEIIKTLNSLTEQKTLCTELTVTDIFAASKNTTEKETFCRAATVLRQFYSHHEKDTRCLGATAQQFHRHKQLIRFLKRLDRNLWGLAGLNSCPVKEANQSTLENFLERLKTIMREKYSKCSS
B1 was tested, and the “mean time to die μ” value was “increases”.
